From patent US20160264649A1

Experiments:
Test in all cases: cell-based or functional assay
[1] = target: HIV-1 Env of isolate MGRM-Chronic-B-017 (HIV-1)
[2] = target: HIV-1 Env of isolate MGRM-Chronic-B-008 (HIV-1)
[3] = target: HIV-1 Env of isolate MGRM-Chronic-B-003 (HIV-1)
[4] = target: HIV-1 Env of isolate THR0.18 (HIV-1)
[5] = target: HIV-1 Env of isolate SC422661.8 (HIV-1)
[6] = target: HIV-1 Env of isolate MGRM-Chronic-B-018 (HIV-1)
[7] = target: HIV-1 Env of isolate PVO.4 (HIV-1)
[8] = target: HIV-1 Env of isolate JRCSF (HIV-1) (UniProt P20871)
[9] = target: HIV-1 Env of isolate MGRM-Chronic-B-001 (HIV-1)
[10] = target: HIV-1 Env of isolate APV_13 (HIV-1)
[11] = target: HIV-1 Env of isolate 98IN022 (HIV-1)
[12] = target: HIV-1 Env of isolate MGRM-Chronic-B-020 (HIV-1)
[13] = target: HIV-1 Env of isolate CAAN.A2 (HIV-1)
[14] = target: HIV-1 Env of isolate MGRM-Chronic-B-002 (HIV-1)
[15] = target: HIV-1 Env of isolate SF162 (HIV-1) (UniProt P19550)
[16] = target: HIV-1 Env of isolate MGRM-Chronic-B-011 (HIV-1)
[17] = target: HIV-1 Env of isolate JRFL (HIV-1)
[18] = target: HIV-1 Env of isolate MGRM-Chronic-B-024 (HIV-1)
[19] = target: HIV-1 Env of isolate 97ZA012 (HIV-1)
[20] = target: HIV-1 Env of isolate APV_17 (HIV-1)
[21] = target: HIV-1 Env of isolate MGRM-Chronic-B-023 (HIV-1)
[22] = target: HIV-1 Env of isolate TRJ04551.58 (HIV-1)
[23] = target: HIV-1 Env of isolate MGRM-Chronic-B-012 (HIV-1)
[24] = target: HIV-1 Env of isolate 93IN905 (HIV-1)
[25] = target: HIV-1 Env of isolate TRO.11 (HIV-1)
[26] = target: HIV-1 Env of isolate VLGCB3 (HIV-1)
[27] = target: HIV-1 Env of isolate MGRM-Chronic-B-010 (HIV-1)
[28] = target: HIV-1 Env of isolate MGRM-Chronic-B-004 (HIV-1)
[29] = target: HIV-1 Env of isolate 92 BR 020 (HIV-1)
[30] = target: HIV-1 Env of isolate APV_6 (HIV-1)
[31] = target: HIV-1 Env of isolate 6535.3 (HIV-1)
[32] = target: HIV-1 Env of isolate NL43 (HIV-1)
[33] = target: HIV-1 Env of isolate 93TH305 (HIV-1)
[34] = target: HIV-1 Env of isolate 93MW959 (HIV-1)
[35] = target: HIV-1 Env of isolate QH0692.42 (HIV-1)

PGT-137 monoclonal antibody (5345_I01), sequence (VH): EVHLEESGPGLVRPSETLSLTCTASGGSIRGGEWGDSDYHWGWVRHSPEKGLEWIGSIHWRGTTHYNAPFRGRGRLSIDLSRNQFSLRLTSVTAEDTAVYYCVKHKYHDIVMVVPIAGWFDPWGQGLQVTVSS
PGT-137 monoclonal antibody (5345_I01), sequence (VL): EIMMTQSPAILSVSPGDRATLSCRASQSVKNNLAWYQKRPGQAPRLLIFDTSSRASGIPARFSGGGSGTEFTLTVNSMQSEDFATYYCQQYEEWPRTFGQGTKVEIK
PGT-136 monoclonal antibody (5329_C19; 5366_P21), sequence (VH): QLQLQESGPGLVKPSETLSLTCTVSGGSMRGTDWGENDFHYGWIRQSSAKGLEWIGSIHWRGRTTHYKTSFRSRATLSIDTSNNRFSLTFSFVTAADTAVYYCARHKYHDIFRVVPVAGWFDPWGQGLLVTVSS
PGT-136 monoclonal antibody (5329_C19; 5366_P21), sequence (VL): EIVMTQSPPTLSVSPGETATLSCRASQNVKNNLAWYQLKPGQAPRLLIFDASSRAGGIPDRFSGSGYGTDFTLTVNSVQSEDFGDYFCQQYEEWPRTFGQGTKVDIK

Substance | neutralization IC50 [1] [µg/mL] | neutralization IC50 [2] [µg/mL] | neutralization IC50 [3] [µg/mL] | neutralization IC50 [4] [µg/mL] | neutralization IC50 [5] [µg/mL] | neutralization IC50 [6] [µg/mL] | neutralization IC50 [7] [µg/mL] | neutralization IC50 [8] [µg/mL] | neutralization IC50 [9] [µg/mL] | neutralization IC50 [10] [µg/mL] | neutralization IC50 [11] [µg/mL] | neutralization IC50 [12] [µg/mL] | neutralization IC50 [13] [µg/mL] | neutralization IC50 [14] [µg/mL] | neutralization IC50 [15] [µg/mL] | neutralization IC50 [16] [µg/mL] | neutralization IC50 [17] [µg/mL] | neutralization IC50 [18] [µg/mL] | neutralization IC50 [19] [µg/mL] | neutralization IC50 [20] [µg/mL] | other results
PGT-130 monoclonal antibody (5147_N06) | > 50 | 5.18 | > 50 | > 50 | > 50 | 31.9 | 5.17 | 0.01 | > 50 | 0.052 | > 50 | 0.014 | > 50 | > 50 | 0.007 | 0.153 | 0.046 | 5.78 | 1.32 | 10.7 | neutralization IC50 [21]: > 50 µg/mL; neutralization IC50 [22]: 0.023 µg/mL; neutralization IC50 [23]: 0.373 µg/mL; neutralization IC50 [24]: 0.02 µg/mL; neutralization IC50 [25]: 0.257 µg/mL; neutralization IC50 [26]: 4.6 µg/mL; neutralization IC50 [27]: 0.006 µg/mL; neutralization IC50 [28]: 0.01 µg/mL; neutralization IC50 [29]: 1.4 µg/mL; neutralization IC50 [30]: > 50 µg/mL; neutralization IC50 [31]: 0.031 µg/mL; neutralization IC50 [32]: > 50 µg/mL; neutralization IC50 [33]: 0.021 µg/mL; neutralization IC50 [34]: 8.55 µg/mL; neutralization IC50 [35]: > 50 µg/mL
PGT-131 monoclonal antibody (5136_H01) | > 50 | > 50 | > 50 | > 50 | > 50 | > 50 | > 50 | 0.029 | > 50 | 0.189 | > 50 | 0.053 | > 50 | > 50 | 0.025 | 6.47 | 0.454 | > 50 | 1.81 | > 50 | neutralization IC50 [21]: > 50 µg/mL; neutralization IC50 [22]: 0.088 µg/mL; neutralization IC50 [23]: 15.7 µg/mL; neutralization IC50 [24]: 0.177 µg/mL; neutralization IC50 [25]: 1.91 µg/mL; neutralization IC50 [26]: > 50 µg/mL; neutralization IC50 [27]: 0.016 µg/mL; neutralization IC50 [28]: 0.04 µg/mL; neutralization IC50 [29]: 6.16 µg/mL; neutralization IC50 [30]: > 50 µg/mL; neutralization IC50 [31]: 0.056 µg/mL; neutralization IC50 [32]: > 50 µg/mL; neutralization IC50 [33]: 0.016 µg/mL; neutralization IC50 [34]: > 50 µg/mL; neutralization IC50 [35]: > 50 µg/mL
PGT-135 monoclonal antibody (5343_B08; 5344_E16) | > 50 | > 50 | > 50 | > 50 | 21.8 | > 50 | > 50 | 0.131 | > 50 | 0.716 | 0.014 | 0.057 | 5.15 | > 50 | 0.023 | > 50 | > 50 | > 50 | > 50 | > 50 | neutralization IC50 [21]: 0.329 µg/mL; neutralization IC50 [22]: > 50 µg/mL; neutralization IC50 [23]: 0.166 µg/mL; neutralization IC50 [24]: 0.011 µg/mL; neutralization IC50 [25]: 0.03 µg/mL; neutralization IC50 [26]: 0.142 µg/mL; neutralization IC50 [27]: > 50 µg/mL; neutralization IC50 [28]: > 50 µg/mL; neutralization IC50 [29]: 0.073 µg/mL; neutralization IC50 [30]: > 50 µg/mL; neutralization IC50 [31]: > 50 µg/mL; neutralization IC50 [32]: 8.03 µg/mL; neutralization IC50 [33]: > 50 µg/mL; neutralization IC50 [34]: > 50 µg/mL; neutralization IC50 [35]: > 50 µg/mL
PGT-136 monoclonal antibody (5329_C19; 5366_P21) | > 50 | > 50 | > 50 | > 50 | > 50 | > 50 | > 50 | > 50 | > 50 | > 50 | 13.6 | > 50 | > 50 | > 50 | 0.482 | > 50 | > 50 | > 50 | > 50 | > 50 | neutralization IC50 [21]: > 50 µg/mL; neutralization IC50 [22]: > 50 µg/mL; neutralization IC50 [23]: 43.1 µg/mL; neutralization IC50 [24]: 0.011 µg/mL; neutralization IC50 [25]: 0.073 µg/mL; neutralization IC50 [26]: > 50 µg/mL; neutralization IC50 [27]: > 50 µg/mL; neutralization IC50 [28]: > 50 µg/mL; neutralization IC50 [29]: 8.61 µg/mL; neutralization IC50 [30]: > 50 µg/mL; neutralization IC50 [31]: > 50 µg/mL; neutralization IC50 [32]: 27.7 µg/mL; neutralization IC50 [33]: 20.2 µg/mL; neutralization IC50 [34]: > 50 µg/mL; neutralization IC50 [35]: > 50 µg/mL
PGT-137 monoclonal antibody (5345_I01) | > 50 | > 50 | > 50 | > 50 | > 50 | > 50 | > 50 | > 50 | > 50 | > 50 | 0.408 | 32.9 | > 50 | > 50 | 3.41 | > 50 | > 50 | > 50 | > 50 | > 50 | neutralization IC50 [21]: > 50 µg/mL; neutralization IC50 [22]: > 50 µg/mL; neutralization IC50 [23]: > 50 µg/mL; neutralization IC50 [24]: 0.042 µg/mL; neutralization IC50 [25]: 9.35 µg/mL; neutralization IC50 [26]: 3.36 µg/mL; neutralization IC50 [27]: > 50 µg/mL; neutralization IC50 [28]: > 50 µg/mL; neutralization IC50 [29]: 7.81 µg/mL; neutralization IC50 [30]: > 50 µg/mL; neutralization IC50 [31]: > 50 µg/mL; neutralization IC50 [32]: 17.4 µg/mL; neutralization IC50 [33]: > 50 µg/mL; neutralization IC50 [34]: > 50 µg/mL; neutralization IC50 [35]: > 50 µg/mL
